The numbers were not newly measured in article PMC3210788, which cites them from elsewhere.

The series addresses VEGFR-1 (Mus musculus) (UniProt P35969).
Chain of UniProt P35969 (P35969 23-1333 S1181G): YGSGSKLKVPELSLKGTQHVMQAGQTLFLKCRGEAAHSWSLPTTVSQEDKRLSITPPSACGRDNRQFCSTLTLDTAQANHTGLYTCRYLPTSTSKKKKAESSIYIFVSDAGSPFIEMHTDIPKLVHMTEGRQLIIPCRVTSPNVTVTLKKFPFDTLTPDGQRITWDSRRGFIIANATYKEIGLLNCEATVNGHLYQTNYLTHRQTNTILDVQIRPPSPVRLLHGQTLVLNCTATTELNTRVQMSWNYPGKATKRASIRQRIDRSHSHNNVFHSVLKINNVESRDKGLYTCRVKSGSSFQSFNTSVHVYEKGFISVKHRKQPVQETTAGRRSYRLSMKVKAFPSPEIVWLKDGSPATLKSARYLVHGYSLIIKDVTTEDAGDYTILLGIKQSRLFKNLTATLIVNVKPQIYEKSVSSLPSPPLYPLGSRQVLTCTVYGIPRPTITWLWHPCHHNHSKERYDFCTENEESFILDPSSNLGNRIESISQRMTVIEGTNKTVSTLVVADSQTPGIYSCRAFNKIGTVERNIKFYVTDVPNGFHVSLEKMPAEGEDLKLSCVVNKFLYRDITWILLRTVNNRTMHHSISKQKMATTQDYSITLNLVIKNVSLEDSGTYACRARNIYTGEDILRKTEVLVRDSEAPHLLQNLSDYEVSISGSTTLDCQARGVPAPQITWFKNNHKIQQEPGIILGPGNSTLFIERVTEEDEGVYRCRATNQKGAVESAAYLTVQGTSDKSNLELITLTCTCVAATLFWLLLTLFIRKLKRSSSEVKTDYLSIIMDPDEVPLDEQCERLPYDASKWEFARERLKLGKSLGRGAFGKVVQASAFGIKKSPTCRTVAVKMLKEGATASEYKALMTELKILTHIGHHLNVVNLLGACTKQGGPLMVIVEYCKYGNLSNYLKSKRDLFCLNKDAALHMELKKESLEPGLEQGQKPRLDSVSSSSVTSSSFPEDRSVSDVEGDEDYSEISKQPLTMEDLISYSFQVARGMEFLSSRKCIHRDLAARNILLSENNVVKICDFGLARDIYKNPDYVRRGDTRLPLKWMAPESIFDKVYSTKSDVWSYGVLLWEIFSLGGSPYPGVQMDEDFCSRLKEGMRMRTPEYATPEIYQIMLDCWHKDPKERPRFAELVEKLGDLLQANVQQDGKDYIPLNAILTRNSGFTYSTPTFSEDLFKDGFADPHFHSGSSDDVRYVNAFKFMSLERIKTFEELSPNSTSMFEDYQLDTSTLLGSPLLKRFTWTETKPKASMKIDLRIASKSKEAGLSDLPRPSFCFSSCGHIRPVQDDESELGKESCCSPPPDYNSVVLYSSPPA

As to VEGF (from UniProt Q00731), the dissociation constant Kd (commonly the free concentration of one partner at which half of the binding sites on the other are occupied at equilibrium, for simple one-to-one binding) is 0.033 nM.
